Test results reported in patent US20220378887A1 (GENOIMMUNE THERAPEUTICS, published 2022).

The binders below were run against T1, HLA-A*11:01 (MHC-I molecules on the surfaces of T2 cells) (human) (assay: T2 cell MHC-I stabilisation assay, flow cytometry with FITC anti-HLA-A*11:01 antibody).
T1 construct: It only names the antibody against 'the corresponding HLA typing (HLA-A*11:01)'; also called HLA molecules

Binder	FI (fluorescence index)
TTAPFLSGK (Synthesized mutant neoantigen peptide; also called high-frequency mutant polypeptide) [TTAPFLSGK polypeptide (CTNNB1; SEQ ID NO: 9)]	1.02
STIDESPIFK (Synthesized mutant neoantigen peptide; also called high-frequency mutant polypeptide) [STIDESPIFK polypeptide (GLCE; SEQ ID NO: 7)]	4.09
VVVGAGDVGK (Synthesized mutant KRAS neoantigen peptide; also called high-frequency mutant polypeptide) [VVVGAGDVGK polypeptide (KRAS; SEQ ID NO: 15)]	1.66
RTIEQLTLK (Synthesized mutant neoantigen peptide; also called high-frequency mutant polypeptide) [RTIEQLTLK polypeptide (ARHGEF11; SEQ ID NO: 8)]	1.57
